Starred links: 1 amine or outer side, 2 acyl side, 3 side chain; linkers in the order of their positions; H or OH if unused. Non-standard residues stand in square brackets, D forms with d. Groups on a side chain read outwards from the residue. No end group written: not given here. *: point of attachment. 2‑(bis(3-aminopropyl)amino)acetyl = branch point, each 3-aminopropyl arm carries one of the two bracketed chains; 4‑(aminomethyl)cyclohexanecarbonyl = 4-(aminomethyl)cyclohexanecarbonyl linker unit; Undecanoyl(11-OPh(4-COOH)) = O=C(O)c1ccc(OCCCCCCCCCCC(=O)*)cc1; Decanoyl(10-(4-HOOC-PhO)) = O=C(O)c1ccc(OCCCCCCCCCC(=O)*)cc1; Decanoyl(10-O(3-COOH-Ph)) = O=C(O)c1cccc(OCCCCCCCCCC(=O)*)c1; C20 diacid = O=C(O)CCCCCCCCCCCCCCCCCCC(=O)*; γGlu = O=C(O)[C@H](CCC(=O)[*:2])N[*:1]; C14 diacid = O=C(O)CCCCCCCCCCCCC(=O)*; Palmitoyl = CCCCCCCCCCCCCCCC(=O)*; AEEA = NCCOCCOCC(=O)O; Aib = CC(C)(N)C(=O)O
Assays:
human GLP-1 receptor [1] = target: T1, human GLP-1 receptor (human, UniProt P43220 24-463); assay: cell-based or functional assay
human GLP-1 receptor [2] = target: T1, human GLP-1 receptor; assay: competitive binding (SPA), displacement of 125I-GLP-1(7-36)NH2 from membranes with human GLP-1 receptor, low HSA
Experimental: (§1) 1. For the receptor binding assay in the presence of low HSA (0.005% (w/v)) 50 μl of the assay buffer was added to each well of an assay plate. Assay continued with step 3. 2. For the receptor binding assay in the presence of high HSA (2% (w/v)) 50 μl of the 8% (w/v) albumin stock was added to each well of an assay plate. Assay continued with step 3. 3. […] 4. Cell membrane aliquots were thawed and diluted to their working concentration. Fifty μl were added to each well in the assay plate. 5. WGA SPA beads were suspended in assay buffer at 20 mg/ml. The suspension was diluted to 10 mg/ml in assay buffer just prior to addition to the assay plate. Fifty μl were added to each well in the assay plate. 6. […] A 25 μl aliquot was reserved for measuring total counts/well. 7. The assay plate was incubated for 2 h at 30° C. 8. The assay plate was centrifuged for 10 min. 9. The assay plate was read in a Packard TopCount NXT instrument.
(§2) Individual replicates were analysed using non-linear regression in GraphPad Prism.

human GLP-1 receptor [3] = target: T1, human GLP-1 receptor; assay: competitive binding (SPA), displacement of 125I-GLP-1(7-36)NH2 from membranes with human GLP-1 receptor, high HSA (2.0% w/v)
Experimental: as §1, §2

Binder | EC50 (pM), in vitro potency, CRE luciferase reporter gene assay in BHK cells (human GLP-1 receptor [1]) [pM] | IC50 (human GLP-1 receptor [2]) [nM] | IC50 (human GLP-1 receptor [3]) [nM]
H[Aib]EGTFTSDVSSYLEEQAARKFIEWLVRGKGEG (not fully specified (residues 21, 30); also: Lys21 and Lys30 acylated as, structure not given here) [Comparative Example 3A (Example 31 of WO 2012/140117)] | 0.53 | 0.26 | 134
HWEGTFTSDVSSYLEEQAARK([AEEA-AEEA-γGlu-Decanoyl(10-(4-HOOC-PhO))])FIEWLVRGK([AEEA-AEEA-γGlu-Decanoyl(10-(4-HOOC-PhO))])GEG | 2.7 | 1.03 | 84.9
H[Aib]EGTFTSDVSSYLEEQAAREFIAWLVRGRPK (also: Lys32 acylated as, structure not given here) [Comparative Example 11A (Example 10 of WO 2016/083499)] | 12.5 | 0.401 | 34.4
HWEGTFTSDVSSYLEGQAAK([AEEA-AEEA-γGlu-Decanoyl(10-(4-HOOC-PhO))])EFIAWLVRGRK([AEEA-AEEA-γGlu-Decanoyl(10-(4-HOOC-PhO))]) | 30 | 6.23 | 771
HWEGTFTSDVSSYLEEQAAREFIAWLVRGRK([Lys-AEEA-AEEA-AEEA-AEEA-AEEA-AEEA-γGlu-4‑(aminomethyl)cyclohexanecarbonyl-C20 diacid)+(AEEA-AEEA-AEEA-AEEA-AEEA-AEEA-γGlu-4‑(aminomethyl)cyclohexanecarbonyl-C20 diacid]) (also called 10) | 31.2 | – | 123
HWEGTFTSDVSSYLEGQAAKEFIAWLVKGRG (also called 8W GLP-1(7-37)) [[Trp8]-GLP-1-(7-37)-peptide] | 12 | 0.67 | 0.208
HWEGTFTSDVSSYLEEQAAREFIAWLVRGK([AEEA-AEEA-γGlu-Decanoyl(10-O(3-COOH-Ph))])K([AEEA-AEEA-γGlu-Decanoyl(10-O(3-COOH-Ph))]) | – | 0.405 | –
HWEGTFTSDVSSYLEGQAAK([γGlu-Palmitoyl])EFIAWLVRGRG [N{Epsilon-26}-[(4S)-4-carboxy-4-(hexadecanoylamino)butanoyl]-[Trp8,Arg34]-GLP-1-(7-37)-peptide] | 21 | – | –
HGEGTFTSDVSSYLEGQAAKEFIAWLVKGRG [[Gly8]-GLP-1-(7-37)-peptide] | 32 | 2.64 | 0.62
HPEGTFTSDVSSYLEEQAAREFIAWLVKGRG [[Pro8,Glu22,Arg26]-GLP-1-(7-37)-peptide] | 0.57 | 0.075 | 0.035
HWEGTFTSDVSSYLEEQAAREFIAWLVRGK([AEEA-AEEA-AEEA-AEEA-γGlu-C14 diacid])K([AEEA-AEEA-AEEA-AEEA-γGlu-C14 diacid]) | – | 0.55 | –
HWEGTFTSDVSSYLEEQAAREFIAWLVRGK([AEEA-AEEA-γGlu-Undecanoyl(11-OPh(4-COOH))])K([AEEA-AEEA-γGlu-Undecanoyl(11-OPh(4-COOH))]) | – | 0.535 | –
HWEGTFTSDVSSYLEEQAAREFIAWLVRGRK([AEEA-AEEA-2‑(bis(3-aminopropyl)amino)acetyl-AEEA-AEEA-AEEA-AEEA-γGlu-4‑(aminomethyl)cyclohexanecarbonyl-C20 diacid)+(AEEA-AEEA-AEEA-AEEA-γGlu-4‑(aminomethyl)cyclohexanecarbonyl-C20 diacid]) (also called 13) [N{Epsilon-37}-[2-[2-[2-[[2-[2-[2-[[2-[bis[3-[[2-[2-[2-[[2-[2-[2-[[2-[2-[2-[[2-[2-[2-[[(4 …] | 32.1 | – | 71.6
HWEGTFTSDVSSYLEEQAAREFIAWLVRGRK([AEEA-AEEA-2,6‑diaminohexanoyl-AEEA-AEEA-AEEA-AEEA-γGlu-4‑(aminomethyl)cyclohexanecarbonyl-C20 diacid)+(AEEA-AEEA-AEEA-AEEA-γGlu-4‑(aminomethyl)cyclohexanecarbonyl-C20 diacid]) (the claim prints (2S)-2,6-bis; also called 12) | 62.9 | – | 51.8
HWEGTFTSDVSSYLEEQAAREFIAWLVRGRGK([AEEA-AEEA-γGlu-4‑(aminomethyl)cyclohexanecarbonyl-C20 diacid])GGSK([AEEA-AEEA-γGlu-4‑(aminomethyl)cyclohexanecarbonyl-C20 diacid]) | 70.5 | – | 305
H[Aib]EGTFTSDVSSYLEEQAAREFIAWLVRGRGKGGSK (also: the two extension Lys residues acylated as in the compound) [Comparative Example 9A (Example 3 of WO 2015/000942)] | 41.3 | 1.04 | 235

— patent publication US20190038721A1 (Novo Nordisk, published 2019)
